Data set [1] addresses T1, UAP56 (Arabidopsis thaliana, UniProt Q56XG6 1-427).
T1 sequence: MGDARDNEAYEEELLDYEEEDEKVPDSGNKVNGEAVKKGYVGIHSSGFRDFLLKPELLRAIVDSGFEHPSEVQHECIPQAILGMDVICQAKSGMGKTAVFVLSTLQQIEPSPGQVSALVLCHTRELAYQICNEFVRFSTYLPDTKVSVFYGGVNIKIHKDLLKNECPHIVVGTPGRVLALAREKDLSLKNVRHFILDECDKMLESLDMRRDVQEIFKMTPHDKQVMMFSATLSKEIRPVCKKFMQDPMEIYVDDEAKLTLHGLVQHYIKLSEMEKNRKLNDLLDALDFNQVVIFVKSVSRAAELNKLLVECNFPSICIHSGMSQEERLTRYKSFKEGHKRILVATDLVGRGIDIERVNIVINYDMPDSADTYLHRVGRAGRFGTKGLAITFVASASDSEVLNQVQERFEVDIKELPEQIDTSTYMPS
In words: MST; MST: 50 nM labelled oligonucleotide in EMSA buffer (composition cited, ref 44), 28 C, Hill fit; EMSA: 32P probe, PAGE, same cited protocol; salt and pH not given. Particulars: protein: recombinant; tags: 6xHis (pQE9); label: fluorescent; blunt.

The next data set deals with T2, GST-UAP56 (Arabidopsis thaliana (Mouse-ear cress), UniProt Q9LFN6).
T2 chain: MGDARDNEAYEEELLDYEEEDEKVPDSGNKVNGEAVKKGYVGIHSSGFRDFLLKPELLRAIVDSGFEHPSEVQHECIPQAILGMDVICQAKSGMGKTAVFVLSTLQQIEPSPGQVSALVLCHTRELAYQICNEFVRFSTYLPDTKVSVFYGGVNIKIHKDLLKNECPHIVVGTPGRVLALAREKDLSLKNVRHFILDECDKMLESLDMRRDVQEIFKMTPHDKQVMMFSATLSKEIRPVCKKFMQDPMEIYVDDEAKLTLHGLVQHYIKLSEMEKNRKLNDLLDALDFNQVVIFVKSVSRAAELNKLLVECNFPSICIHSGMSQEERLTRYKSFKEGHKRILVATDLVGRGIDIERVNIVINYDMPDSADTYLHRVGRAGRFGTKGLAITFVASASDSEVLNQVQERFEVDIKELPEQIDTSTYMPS
Nature of the data set: GST pull-down; ATP present.

The target of data set [2] is T1, UAP56. Nature of the data set: EMSA; 0.25-5 uM protein; two complexes; less efficient than RNA; MST: 50 nM labelled oligonucleotide in EMSA buffer (composition cited, ref 44), 28 C, Hill fit; EMSA: 32P probe, PAGE, same cited protocol; salt and pH not given. Particulars: protein: recombinant; tags: 6xHis (pQE9); label: 32P; blunt. For orientation: A gel shift assay detects complexes by their altered migration in electrophoresis.

For data set [3], the target named is T3, Df31 (Decondensation Factor 31) (Drosophila, UniProt O16043 1-183).
T3 sequence: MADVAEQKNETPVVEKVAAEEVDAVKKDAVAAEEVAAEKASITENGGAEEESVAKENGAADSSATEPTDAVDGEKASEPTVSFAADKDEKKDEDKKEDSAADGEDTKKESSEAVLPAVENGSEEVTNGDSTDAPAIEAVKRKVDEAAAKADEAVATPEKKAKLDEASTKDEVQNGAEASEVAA
Nature of the data set: MST; up to 411 uM protein; MST: 50 nM labelled oligonucleotide in EMSA buffer (composition cited, ref 44), 28 C, Hill fit; EMSA: 32P probe, PAGE, same cited protocol; salt and pH not given. Particulars: protein: recombinant; label: fluorescent; blunt.

The target in data set [4] is T1, UAP56. In words: EMSA; 0.25-5 uM protein; single complex; MST: 50 nM labelled oligonucleotide in EMSA buffer (composition cited, ref 44), 28 C, Hill fit; EMSA: 32P probe, PAGE, same cited protocol; salt and pH not given. The following applies: protein: recombinant; tags: 6xHis (pQE9); label: 32P; blunt.

The text below walks through data of publication PMC3608606, “Arabidopsis DEAD-Box RNA Helicase UAP56 Interacts with Both RNA and DNA as well as with mRNA Export Factors”.

B1: R29ds (dsRNA)
RNA 1: CCUCCUUUUUUCUUUUUUUUUUUUUUUCU
RNA 2: AGAAAAAAAAAAAAAAAGAAAAAAGGAGG
The term Kd denotes the free concentration of one partner at which half of the binding sites on the other are occupied at equilibrium, for simple one-to-one binding. With B1, the dissociation constant (Kd) with UAP56 [1] was 51.5 ± 5.3 µM.

B2: 6xHis-MOS11 (protein)
chain: MATNGEKVTATVVNGGGLSTGENPKKIVDLNTTELDRTDDILDGEVKGFSDSGEKKEETDSNGIGSTAGVDSGDISPVDDIQKKIRRAERFGVSVKLTEEEKRNSRAERFGTVAAAVVNGSEGTKKAEELKRKARADRFGVPSATSTTDKTEEEAKKKARLARFGKETKVDSAEENKRKARALRFSKEASADASSDLPEKQIIGKEAAVSGSAA
In the case of B2, the binding result with GST-UAP56 was “binds”.

B3: D25ds (dsDNA)
DNA 1: AAAACAAAATAGCACCGTAAAGCAC
DNA 2: GTGCTTTACGGTGCTATTTTGTTTT
On to B3, for which the binding result in the data set with UAP56 [2] is “binds”.

B4: 6xHis-HMGB2 (protein)
chain: MKGAKSKTETRSSKLSVTKKPAKGAGRGKAAAKDPNKPKRPASAFFVFMEDFRETFKKENPKNKSVATVGKAAGDKWKSLSDSEKAPYVAKAEKRKVEYEKNIKAYNKKLEEGPKEDEESDKSVSEVNDEDDAEDGSEEEEDDD
As to B4, the binding result in the data set with GST-UAP56 is on record as “no binding”.

B5: D29ds (dsDNA)
DNA 1: CCTCCTTTTTTCTTTTTTTTTTTTTTTCT
DNA 2: AGAAAAAAAAAAAAAAAGAAAAAAGGAGG
As to B5, in data set [3], the binding result is given as “no binding”. In the data set with UAP56 [1], the Kd amounted to 6.5 ± 0.75 µM.

B6: R25ds (dsRNA)
RNA 1: AAAACAAAAUAGCACCGUAAAGCAC
RNA 2: GUGCUUUACGGUGCUAUUUUGUUUU
Take B6: the binding result in the data set with UAP56 [4] is on record as “binds”.
